Laboratory results: the supplement of paper PMC10567573
± gives the standard deviation.

Experiment: protein stability index of a GFP-peptide fusion (GPS, HEK-293T) (PSI 1-6); higher = more stable
[1] = treatment: DMSO, c terminus: a fixed tail appended
[2] = treatment: MLN4924 1 uM, 8 h, c terminus: a fixed tail appended
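Note: 24-mer peptide tiles fused after GFP, lentivirally expressed, FACS-sorted into six equal bins by GFP/DsRed ratio, decoded by Illumina sequencing, PSI is the read-weighted mean bin number.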

Row | Sequence | protein stability index [1] | protein stability index [2] | protein stability index (treatment: DMSO, c terminus: native) | protein stability index (treatment: MLN4924 1 uM, 8 h, c terminus: native)
1 | WTLQRRLTRLRTASGHEPGGSAVC [PLEKHN1] | 3 ± 0.23 | 3.06 ± 0.22 | – | –
2 | KAVANMQGEMDRKCKQVKEKCKEE [ZMYND11] | 5.14 ± 0.31 | 5.31 ± 0.3 | – | –
3 | RKIQFNFPYFRSDRDKRDFVSAGA [CLCN6] | 2.67 ± 0.16 | 2.76 ± 0.39 | – | –
4 | LQMEVCRLKKEEEDRIVTQNRVFA [CEP70] | 3.98 ± 0.31 | 4.01 ± 0.055 | – | –
5 | LEAELLQIEERHQEKKRKFLESTD [SMARCE1] | 4.89 ± 0.69 | 5.04 ± 0.24 | – | –
6 | LEVKIHDWYQKQTPTSPECDYSQY [KRT15] | 2.81 ± 0.3 | 2.94 ± 0.25 | – | –
7 | IQLRRWQETRGELQCRSPPRLHGA [TBC1D10A] | 2.74 ± 0.23 | 2.85 ± 0.39 | – | –
8 | LRLSCMERKKVQIRSMDPSALASD [DCAF4] | 2.99 ± 0.31 | 3.48 ± 0.3 | – | –
9 | RRLKYFFMSPCDKFRAKGRKPCKL [MCOLN1] | 2.38 ± 0.38 | 2.71 ± 0.16 | – | –
10 | KSMKPYNYCSAYESFYESTSPECA [NEUROD6] | 3.15 ± 0.17 | 3.23 ± 0.35 | – | –
11 | LSRENIQSSLLETLYRNRSNLETI [PPEF2] | 2.83 ± 0.39 | 2.64 ± 0.33 | – | –
12 | DCLQFYVNSTLKELRRLFLVQDLV [RTN1] | 2.99 ± 0.61 | 2.81 ± 0.76 | – | –
13 | VKMFYSFQDKRNLYLIMEFLPGGD [STK38L] | 3.11 ± 0.85 | 3.29 ± 0.4 | – | –
14 | QYLMATFVHVYITSFIRGPNPSKV [CDS1] | 3.12 ± 0.17 | 3.2 ± 0.34 | – | –
15 | AQKISKGADPKSVVCAFFKQGQCT [ZC3H15] | 3.32 ± 0.34 | 3.31 ± 0.26 | – | –
16 | REHVCRKDQRNPPSLGRVLPDPRE [RBMY1A1] | 4.69 ± 0.22 | 4.8 ± 0.24 | – | –
17 | SETPKSQVGTLLFRSRSRLTHLSL [CDC25B] | 2.43 ± 0.12 | 2.53 ± 0.3 | – | –
18 | LELLGATYVDKKRDLLGALKHWRR [FEM1A] | 2.48 ± 0.11 | 2.62 ± 0.3 | – | –
19 | PHMAEQTFEQAIQAASRIIRNEQF [CDC25B] | 3.1 ± 0.29 | 3.39 ± 0.17 | – | –
20 | ENSICVGFKRDYYLIRVDGKGSIK [VPS39] | 2.16 ± 0.54 | 2.35 ± 0.37 | – | –
21 | KLKNLRRKQRRRERWLQKQGKYSG [RNF180] | 3.83 ± 0.33 | 3.93 ± 0.4 | – | –
22 | RRMCFVDPVRQCAECALVSLKEAE [ZFYVE21] | 2.98 ± 0.25 | 3.01 ± 0.64 | – | –
23 | CADVPLLTPSSKEMMSQALKATFS [ETS1] | 2.79 ± 0.2 | 2.66 ± 0.3 | – | –

Row | Sequence | protein stability index [1] | protein stability index [2] | protein stability index (treatment: DMSO, c terminus: native) | protein stability index (treatment: MLN4924 1 uM, 8 h, c terminus: native)
24 | NVLSDLYAMGITECDNMLMLLSVS [SEPHS2] | 2.93 ± 0.55 | 2.71 ± 0.42 | – | –
25 | LGDPPPLLTLPRPPLSGALASITE [HDAC6] | 4.33 ± 0.38 | 4.41 ± 0.32 | – | –
26 | SPTSGSPRGSHSSALERLETKLHL [LURAP1L] | 3.64 ± 0.4 | 3.94 ± 0.36 | – | –
27 | PDMSVTKVVVHKETEITPEDGED [EPB41L3] | – | – | 5.5 ± 0.35 | 5.57 ± 0.29
28 | HRRGLGVDSKPELQRVLEHRRRNQ [FAM107A] | 4.01 ± 0.4 | 4.11 ± 0.31 | – | –
29 | DKERAVLLQRRKRENMSDGDTSAT [KMT2E] | 5.27 ± 0.062 | 5.39 ± 0.19 | – | –
30 | ATSGPPGIQPGQEPPVTMIFMGYQ [PALM] | 2.47 ± 0.24 | 2.38 ± 0.14 | – | –
31 | AQDLTEAEGWHFFCFQGEATRKLA [SAT2] | 2.94 ± 0.36 | 3.32 ± 0.46 | – | –
32 | EKRLEGQEEEEDNRDSSMKLSFRA [CHGA] | 5.1 ± 0.75 | 5.19 ± 0.38 | – | –
33 | QQENKVLKIELETYKLKCKALQEE [CCDC6] | 4.28 ± 0.12 | 4.27 ± 0.14 | – | –
34 | FHLGLEDILMEEEEGVVGGLSGGA [TFE3] | 3.75 ± 0.46 | 4.3 ± 0.46 | – | –
35 | GYSSLDQSPDEKPLVALDTDSDDD [FAM219A] | 5.69 ± 0.17 | 5.48 ± 0.31 | – | –
36 | NQLQYMQNVVVKTLWKHQFAWPFY [BRD3] | 3.03 ± 0.46 | 2.64 ± 0.36 | – | –
37 | FNNVVEQNFKNRESYPEDTVFYIP [DLC1] | 3.01 ± 0.24 | 3.16 ± 0.2 | – | –
38 | MCYRVRWEEAAPGRAVEHAMFLGD [MYORG] | 2.27 ± 0.18 | 2.34 ± 0.47 | – | –
39 | EELEFQYRRVNELLLSILNPTRQD [ZER1] | 3.01 ± 0.26 | 3.04 ± 0.31 | – | –
40 | ARPSETFARFCKSQESALGNTVPA [DNAAF3] | 3.12 ± 0.26 | 2.94 ± 0.26 | – | –
41 | VDDLSVEWDAMGGKVQDIKAREKD [FSD1] | 5.41 ± 0.33 | 5.5 ± 0.43 | – | –
42 | PLAQNERCLHMFLQDEIIDKSYTP [SNX3] | 2.97 ± 0.24 | 3.39 ± 0.22 | – | –
43 | DLALDLGPQSRELTLKVLRSSSCG [C2CD2L] | 3.28 ± 0.18 | 3.62 ± 0.34 | – | –
44 | NHAPLREQGAIPRLVQLLVRAHQD [CTNNB1] | 2.91 ± 0.23 | 2.91 ± 0.19 | – | –
45 | LQDGNLRAPHKESTLPRSGSSGGQ [CHCHD6] | 5.03 ± 0.12 | 4.95 ± 0.31 | – | –
46 | QICTVKDIKAEPQPLSPASSSYSV [ATF6] | 4.16 ± 0.26 | 3.98 ± 0.47 | – | –

Row | Sequence | protein stability index [1] | protein stability index [2] | protein stability index (treatment: DMSO, c terminus: native) | protein stability index (treatment: MLN4924 1 uM, 8 h, c terminus: native)
47 | GAKMTERGSVARPTQGPETPRSPE [PXN] | 5.59 ± 0.13 | 5.38 ± 0.26 | – | –
48 | LSLESEGAGEGAAASPELSALEEA [TPPP] | 5.52 ± 0.17 | 5.58 ± 0.17 | – | –
49 | IQPGPFRAVLKYLYTGELDENERD [RHOBTB2] | 3.37 ± 0.53 | 3.43 ± 0.25 | – | –
50 | FQAHRDKYEKLRGDVAIKLKFLEE [ARFIP2] | 2.89 ± 0.45 | 3.15 ± 0.25 | – | –
51 | LEGEDAHLSSQQASGQSYSSREVF [KRT16] | 5.04 ± 0.15 | 5.02 ± 0.1 | – | –
52 | IYQYVQNSMAPHPARDYVVLRTWR [DLC1] | 1.93 ± 0.23 | 2.03 ± 0.37 | – | –
53 | VGKGEILASLQDGAAESPYGHPAG [RAB40B] | 4.66 ± 0.24 | 4.76 ± 0.2 | – | –
54 | QHLKSKALRERWLLEGTPSSASEG [PALM] | 4.25 ± 0.13 | 4.33 ± 0.2 | – | –
55 | VNYTQGLWEKVMPSRYAAIYNGGV [SLC19A2] | 2.33 ± 0.18 | 2.21 ± 0.47 | – | –
56 | VNLQHLDLLNNKLVTLPVSFAQLK [LRRC59] | 2.12 ± 0.23 | 2.31 ± 0.3 | – | –
57 | NCSDFLESKGCFANTTPSGKSVSS [SPATS1] | 4.15 ± 0.2 | 4.35 ± 0.17 | – | –
58 | VLNVAGEAGGKQKAVEEELDAEDR [SLC6A17] | 5.72 ± 0.17 | 5.69 ± 0.16 | – | –
59 | CSSPGVQACSLPASCCIDPREDGA [TSPAN10] | 4.687 ± 0.023 | 4.6 ± 0.1 | – | –
60 | MELGPEPPHRRRLLFACSPPPASQ [CDC25A] | 3.57 ± 0.2 | 3.47 ± 0.17 | – | –
61 | LIALLTWGYIRYSGQYRELGGAID [ATL3] | 3.4 ± 0.13 | 3.52 ± 0.17 | – | –
62 | AGISRSPTICMAYLMKTKQFRLKE [DUSP5] | 2.21 ± 0.3 | 2.13 ± 0.24 | – | –
63 | CQDSSGEVSCQCQLHPPRWYSRLQ | 2.38 ± 0.28 | 2.81 ± 0.23 | – | –
64 | LVADLLYWKDTRTSGVVFTGLMVS [RTN2] | 3.17 ± 0.46 | 3.03 ± 0.4 | – | –
65 | TAEDAELSDFEECEETGELFEEPA [FCHSD1] | 5.58 ± 0.24 | 5.5 ± 0.28 | – | –
66 | DSPSRSPSKVEVTEKTTTVLSESS [C2CD2L] | 5.59 ± 0.24 | 5.38 ± 0.19 | – | –
67 | NLQELLELDSSSSLCVLVSTVGKL [CEP70] | 2.29 ± 0.49 | 2.43 ± 0.47 | – | –
68 | AEFQLVRDVVLCSLLNFLPEGVNK [TENT5C] | 2.37 ± 0.7 | 3.07 ± 0.85 | – | –
69 | PQVFVSNKINAGMYILSPAVLRRI [GMPPB] | 2.21 ± 0.39 | 2.06 ± 0.26 | – | –

Row | Sequence | protein stability index [1] | protein stability index [2] | protein stability index (treatment: DMSO, c terminus: native) | protein stability index (treatment: MLN4924 1 uM, 8 h, c terminus: native)
70 | GSKYYNVEAMYCYLRCIQSEVSFE [SMG5] | 3.05 ± 0.94 | 2.1 ± 0.68 | – | –
71 | EEMEEEEEEEEEEDEDDDSADMDE [FBXO3] | 5.57 ± 0.15 | 5.59 ± 0.087 | – | –
72 | SEQEHFLIVPFGLLYSEVTASSLV [ADD1] | 2.65 ± 0.57 | 2.92 ± 0.68 | – | –
73 | ETTSQQERLQAIAEKRKRQAEIEN [PALM] | 4.94 ± 0.14 | 5.06 ± 0.12 | – | –
74 | IDEHHFVAVALRKPDGSRHQDVPS [AASDHPPT] | 4 ± 0.17 | 4.07 ± 0.19 | – | –
75 | MEPGGARLRLQRTGGLGGERERQP [SOAT2] | 4.58 ± 0.12 | 4.65 ± 0.21 | – | –
76 | YYSDKYDDEEFEYRHVMLPKDIAK [CKS1B] | 3.81 ± 0.12 | 3.91 ± 0.14 | – | –
77 | EQLSVLASCLQELFKAHFRGEVLP [INTS3] | 2.52 ± 0.42 | 2.5 ± 1.1 | – | –
78 | EAAGGDHETESTSDKETDIDDRYG [CDS1] | 5.6 ± 0.09 | 5.62 ± 0.22 | – | –
79 | GSKVTCRGLLEYFKAYIKIYQGED [ATL3] | 2.31 ± 0.14 | – | – | –
80 | YEADCLAAAYGGKAAPAAPPAARP [CEBPB] | 4.49 ± 0.15 | 4.6 ± 0.2 | – | –
81 | ENYLNRCMDQERLRRESTSQKEMD [FCHO1] | 4.24 ± 0.28 | 4.56 ± 0.3 | – | –
82 | PSVFDGLGDLLMPTMAPAGQPAPV [SNAP91] | 3.54 ± 0.25 | 3.57 ± 0.2 | – | –
83 | ILSGARVNAKDNMWLTPLHRAVAS [ANKRD44] | 2.34 ± 0.1 | 2.4 ± 0.27 | – | –
84 | DPLSLLDDSKFPIEDTPLVPVSFI [PCDHGA10] | 2.85 ± 0.49 | 2.97 ± 0.3 | – | –
85 | FLHPDLGVGGAERLVLDAALALQA [ALG2] | 2.32 ± 0.43 | 2.27 ± 0.23 | – | –
86 | FSINSRLASSLGNLNAATDDPENK [CDC14A] | 5.08 ± 0.26 | 5.1 ± 0.39 | – | –
87 | ADSGNFKRCINLWKYALDMQQSNL [FEM1C] | 2.15 ± 0.37 | 2.21 ± 0.37 | – | –
88 | HVNFSHLTTKDYMEMYNVIMTVKE [SLC6A17] | 2.41 ± 0.32 | 2.44 ± 0.52 | – | –
89 | VHGIRSVGTAAVNMCLVATGGADA [IMPA1] | 2.78 ± 0.35 | 2.93 ± 0.39 | – | –
